# Laboratory results as given in the supplement of paper PMC11780869.
# System: Bacillus subtilis
# Experiment: cleaved RNA product abundance (RNA/gDNA barcode ratio) relative to median wild-type variant (ratio to wild type); higher = more accumulation of the downstream cleavage product
# Details: cleavage site: cggR-gapA (positions -7 to +36 mutated)
# Summary of the method: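 Oligos with a 9% error rate were used to build barcoded, mutagenized RNase Y cleavage-site windows within truncated aprE or tetM reporter mRNAs, which were integrated into the B. subtilis chromosome. Cultures were grown in LB at 37°C between OD600 0.0003 and 0.3. Cleaved RNA was gel-selected, reverse transcribed and barcode-sequenced, as were genomic DNA barcodes, and UMIs were collapsed. Cleaved product abundance is the scaled RNA:gDNA barcode ratio, with the median construct carrying the unmutated site as reference.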
# [1] = experiment (reporter, strain, medium): exp 2b: truncated aprE reporter, strain BJT200
# [2] = experiment (reporter, strain, medium): exp 4a: truncated aprE reporter, strain BJT201 with 2% xylose (RNase J1 expressed)
# [3] = experiment (reporter, strain, medium): exp 6: tetM reporter, strain 168
sequence,measurement,setting,value
ACAGACGAAGGAGCCGCAAAGAAGTTATTAAGGGATGATTAATCCTTCAATATAAATATCTCTCACTTATTTAAA,cleaved RNA product abundance,[1],0.306
same,cleaved RNA product abundance,[2],0.469
ACAGACGAAGGAGCCGCAAAGAAGTTATTAAGGGATGATTAATGCCTCAATATAAATATCTCTCACTTATTTAAA,cleaved RNA product abundance,[1],0.117
ACAGACGAAGGAGCCGCAAAGAAGTTATTAAGGGATGATTAATTCCTCAATATAAATATCTCTCACTTATTTAAA,cleaved RNA product abundance,[1],0.271
ACAGACGAAGGAGCCGCAAAGAAGTTATTAAGGGATGATTTATCCCTCAATATAAATATCTCTCACTTATTTAAA,cleaved RNA product abundance,[2],0.771
ACAGACGAAGGAGCCGCAAAGAAGTTATTAAGGGATGCACAATCCCTCAATATAAATATCTCTCACTTATTTAAA,cleaved RNA product abundance,[2],0.547
ACAGACGAAGGAGCCGCAAAGAAGTTATTAAGGGATGCATAAGCCCTCAATATAAATATCTCTCACTTATTTAAA,cleaved RNA product abundance,[2],0.732
ACAGACGAAGGAGCCGCAAAGAAGTTATTAAGGGATGCATAATACCTCAATATAAATATCTCTCACTTATTTAAA,cleaved RNA product abundance,[1],0.129
same,cleaved RNA product abundance,[2],0.141
ACAGACGAAGGAGCCGCAAAGAAGTTATTAAGGGATGCATAATCACTCAATATAAATATCTCTCACTTATTTAAA,cleaved RNA product abundance,[1],0.0901
same,cleaved RNA product abundance,[2],0.109
ACAGACGAAGGAGCCGCAAAGAAGTTATTAAGGGATGCATAATCCCACAATATAAATATCTCTCACTTATTTAAA,cleaved RNA product abundance,[2],0.204
ACAGACGAAGGAGCCGCAAAGAAGTTATTAAGGGATGCATAATCCCTAAATATAAATATCTCTCACTTATTTAAA,cleaved RNA product abundance,[2],0.76
ACAGACGAAGGAGCCGCAAAGAAGTTATTAAGGGATGCATAATCCCTCAATAAAAATATCTCTCACTTATTTAAA,cleaved RNA product abundance,[2],0.139
ACAGACGAAGGAGCCGCAAAGAAGTTATTAAGGGATGCATAATCCCTCAATATAAACATCTCTCACTTATTTAAA,cleaved RNA product abundance,[2],0.545
ACAGACGAAGGAGCCGCAAAGAAGTTATTAAGGGATGCATAATCCCTCAATATAAATAGCTCTCACTTATTTAAA,cleaved RNA product abundance,[2],0.45
ACAGACGAAGGAGCCGCAAAGAAGTTATTAAGGGATGCATAATCCCTCAATATAAATATCTCTCACTTATTTAAA,cleaved RNA product abundance,[1],0.856
same,cleaved RNA product abundance,[2],0.844
same,cleaved RNA product abundance,[3],1.15
ACAGACGAAGGAGCCGCAAAGAAGTTATTAAGGGATGCATAATCCCTCAATTTAAATATCTCTCACTTATTTAAA,cleaved RNA product abundance,[1],0.177
ACAGACGAAGGAGCCGCAAAGAAGTTATTAAGGGATGCATAATCCCTCACTATAAATATCTCTCACTTATTTAAA,cleaved RNA product abundance,[2],0.233
ACAGACGAAGGAGCCGCAAAGAAGTTATTAAGGGATGCATAATCTCTCAATATAAATATCTCTCACTTATTTAAA,cleaved RNA product abundance,[2],0.725
ACAGACGAAGGAGCCGCAAAGAAGTTATTAAGGGATGCATAATTCCTCAATATAAATATCTCTCACTTATTTAAA,cleaved RNA product abundance,[2],0.559
ACAGACGAAGGAGCCGCAAAGAAGTTATTAAGGGATGCATCATCCCTCAATATAAATATCTCTCACTTATTTAAA,cleaved RNA product abundance,[2],0.307
ACAGACGAAGGAGCCGCAAAGAAGTTATTAAGGGATGCGTAATCCCTCAATATAAATATCTCTCACTTATTTAAA,cleaved RNA product abundance,[2],0.629
ACAGACGAAGGAGCCGCAAAGAAGTTATTAAGGGATGGATAATACCTCAATATAAATATCTCTCACTTATTTAAA,cleaved RNA product abundance,[2],0.103
ACAGACGAAGGAGCCGCAAAGAAGTTATTAAGGGATGGATAATCCATCAATATAAATATCTCTCACTTATTTAAA,cleaved RNA product abundance,[2],0.189
ACAGACGAAGGAGCCGCAAAGAAGTTATTAAGGGATGGATAATCCCTAAATATAAATATCTCTCACTTATTTAAA,cleaved RNA product abundance,[2],0.553
ACAGACGAAGGAGCCGCAAAGAAGTTATTAAGGGATGGATAATCCCTCAATATAAAAATCTCTCACTTATTTAAA,cleaved RNA product abundance,[2],0.356
ACAGACGAAGGAGCCGCAAAGAAGTTATTAAGGGATGGATAATCCCTCAATATAAATATCTCTCACTTATTTAAA,cleaved RNA product abundance,[1],0.623
same,cleaved RNA product abundance,[2],0.884
same,cleaved RNA product abundance,[3],0.969
ACAGACGAAGGAGCCGCAAAGAAGTTATTAAGGGATGGATAATCCCTCGATATAAATATCTCTCACTTATTTAAA,cleaved RNA product abundance,[2],0.235
ACAGACGAAGGAGCCGCAAAGAAGTTATTAAGGGATGGATAATCCGTCAATATAAATATCTCTCACTTATTTAAA,cleaved RNA product abundance,[2],0.149
ACAGACGAAGGAGCCGCAAAGAAGTTATTAAGGGATGGATAATTCCTCAATATAAATATCTCTCACTTATTTAAA,cleaved RNA product abundance,[2],0.58
ACAGACGAAGGAGCCGCAAAGAAGTTATTAAGGGATGGATACTCCCTCAATATAAATATCTCTCACTTATTTAAA,cleaved RNA product abundance,[1],0.263
ACAGACGAAGGAGCCGCAAAGAAGTTATTAAGGGATGTAAAATCCCTCAATATAAATATCTCTCACTTATTTAAA,cleaved RNA product abundance,[2],1.04
ACAGACGAAGGAGCCGCAAAGAAGTTATTAAGGGATGTAGAATCCCTCAATATAAATATCTCTCACTTATTTAAA,cleaved RNA product abundance,[2],0.768
ACAGACGAAGGAGCCGCAAAGAAGTTATTAAGGGATGTATAAACCCTCAATATAAATATCTCTCACTTATTTAAA,cleaved RNA product abundance,[1],0.448
same,cleaved RNA product abundance,[2],0.592
ACAGACGAAGGAGCCGCAAAGAAGTTATTAAGGGATGTATAATACCTCAATATAAATATCTCTCACTTATTTAAA,cleaved RNA product abundance,[1],0.139
same,cleaved RNA product abundance,[2],0.103
ACAGACGAAGGAGCCGCAAAGAAGTTATTAAGGGATGTATAATCCATCAATATAAATATCTCTCACTTATTTAAA,cleaved RNA product abundance,[1],0.175
same,cleaved RNA product abundance,[2],0.238
ACAGACGAAGGAGCCGCAAAGAAGTTATTAAGGGATGTATAATCCCACAATATAAATATCTCTCACTTATTTAAA,cleaved RNA product abundance,[2],0.308
ACAGACGAAGGAGCCGCAAAGAAGTTATTAAGGGATGTATAATCCCCCAATATAAATATCTCTCACTTATTTAAA,cleaved RNA product abundance,[1],0.205
ACAGACGAAGGAGCCGCAAAGAAGTTATTAAGGGATGTATAATCCCTAAATATAAATATCTCTCACTTATTTAAA,cleaved RNA product abundance,[1],0.551
same,cleaved RNA product abundance,[2],0.748
ACAGACGAAGGAGCCGCAAAGAAGTTATTAAGGGATGTATAATCCCTCAAAATAAATATCTCTCACTTATTTAAA,cleaved RNA product abundance,[1],0.267
same,cleaved RNA product abundance,[2],0.344
ACAGACGAAGGAGCCGCAAAGAAGTTATTAAGGGATGTATAATCCCTCAATATAAAAATCTCTCACTTATTTAAA,cleaved RNA product abundance,[2],0.439
ACAGACGAAGGAGCCGCAAAGAAGTTATTAAGGGATGTATAATCCCTCAATATAAATATCTCTCACTTATTTAAA,cleaved RNA product abundance,[1],0.943
same,cleaved RNA product abundance,[2],0.978
same,cleaved RNA product abundance,[3],0.798
ACAGACGAAGGAGCCGCAAAGAAGTTATTAAGGGATGTATAATCCCTCAATATAAATCTCTCTCACTTATTTAAA,cleaved RNA product abundance,[2],0.82
ACAGACGAAGGAGCCGCAAAGAAGTTATTAAGGGATGTATAATCCCTCAATATATATATCTCTCACTTATTTAAA,cleaved RNA product abundance,[1],0.631
ACAGACGAAGGAGCCGCAAAGAAGTTATTAAGGGATGTATAATCCCTCAATTTAAATATCTCTCACTTATTTAAA,cleaved RNA product abundance,[1],0.218
same,cleaved RNA product abundance,[2],0.146
ACAGACGAAGGAGCCGCAAAGAAGTTATTAAGGGATGTATAATCCCTCAGTATAAATATCTCTCACTTATTTAAA,cleaved RNA product abundance,[1],0.218
same,cleaved RNA product abundance,[2],0.237
ACAGACGAAGGAGCCGCAAAGAAGTTATTAAGGGATGTATAATCCCTCATTATAAATATCTCTCACTTATTTAAA,cleaved RNA product abundance,[2],0.387
ACAGACGAAGGAGCCGCAAAGAAGTTATTAAGGGATGTATAATCCCTCCATATAAATATCTCTCACTTATTTAAA,cleaved RNA product abundance,[1],0.162
ACAGACGAAGGAGCCGCAAAGAAGTTATTAAGGGATGTATAATCCCTGAATATAAATATCTCTCACTTATTTAAA,cleaved RNA product abundance,[2],0.461
ACAGACGAAGGAGCCGCAAAGAAGTTATTAAGGGATGTATAATCCCTTAATATAAATATCTCTCACTTATTTAAA,cleaved RNA product abundance,[2],0.445
ACAGACGAAGGAGCCGCAAAGAAGTTATTAAGGGATGTATAATCCGTCAATATAAATATCTCTCACTTATTTAAA,cleaved RNA product abundance,[2],0.187
ACAGACGAAGGAGCCGCAAAGAAGTTATTAAGGGATGTATAATCCTTCAATATAAATATCTCTCACTTATTTAAA,cleaved RNA product abundance,[2],0.922
ACAGACGAAGGAGCCGCAAAGAAGTTATTAAGGGATGTATAATCGCTCAATATAAATATCTCTCACTTATTTAAA,cleaved RNA product abundance,[2],0.173
ACAGACGAAGGAGCCGCAAAGAAGTTATTAAGGGATGTATAATCTCTCAATATAAATATCTCTCACTTATTTAAA,cleaved RNA product abundance,[1],0.708
same,cleaved RNA product abundance,[2],0.513
ACAGACGAAGGAGCCGCAAAGAAGTTATTAAGGGATGTATAATTCCTCAATATAAATATCTCTCACTTATTTAAA,cleaved RNA product abundance,[2],0.576
ACAGACGAAGGAGCCGCAAAGAAGTTATTAAGGGATGTATATTCCCTCAATATAAATATCTCTCACTTATTTAAA,cleaved RNA product abundance,[2],0.88
ACAGACGAAGGAGCCGCAAAGAAGTTATTAAGGGATGTGTAATCCCTCAATATAAATATCTCTCACTTATTTAAA,cleaved RNA product abundance,[2],0.526
ACAGACGAAGGAGCCGCAAAGAAGTTATTAAGGGATTAAAAATCCCTCAATATAAATATCTCTCACTTATTTAAA,cleaved RNA product abundance,[1],0.941
same,cleaved RNA product abundance,[2],0.629
ACAGACGAAGGAGCCGCAAAGAAGTTATTAAGGGATTAACAATCCCTCAATATAAATATCTCTCACTTATTTAAA,cleaved RNA product abundance,[1],1.08
same,cleaved RNA product abundance,[2],0.961
ACAGACGAAGGAGCCGCAAAGAAGTTATTAAGGGATTAAGAATCCCTCAATATAAATATCTCTCACTTATTTAAA,cleaved RNA product abundance,[2],1.06
ACAGACGAAGGAGCCGCAAAGAAGTTATTAAGGGATTAATAAACCCTCAATATAAATATCTCTCACTTATTTAAA,cleaved RNA product abundance,[1],0.559
same,cleaved RNA product abundance,[2],0.575
ACAGACGAAGGAGCCGCAAAGAAGTTATTAAGGGATTAATAACCCCTCAATATAAATATCTCTCACTTATTTAAA,cleaved RNA product abundance,[1],0.749
same,cleaved RNA product abundance,[2],0.72
